Patent US20200369728A1, “PEPTIDOMIMETIC MACROCYCLES AND USES THEREOF” (Aileron Therapeutics, Inc., priority 2015, published 2020)
“And” between values parts separate entries of the source, which are not always exact repeats. Equal entries are not always repeated.

T1: MDMX (In-house, 40 kD) (UniProt O15151)
T1 sequence (looked up): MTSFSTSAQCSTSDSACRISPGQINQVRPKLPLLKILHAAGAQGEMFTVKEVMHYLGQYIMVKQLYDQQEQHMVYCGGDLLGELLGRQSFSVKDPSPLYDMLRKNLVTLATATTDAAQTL

T2: MDMX (In-house, 40 kD) (UniProt O15151 1-120, limits assumed)
T2 construct: Construct limits and any tag are unknown; also called MDM4
T2 sequence (looked up): T1 sequence (looked up)

B1: SP609, Ac-LTF$r8EYWAAibL$AAAAAa-NH2 (peptide)
peptide: LTFAEYWAXLAAAAAAA
modifications: not fully specified; N-terminal acetyl; $r8 at 4 crosslinked by all-carbon olefin staple to $ at 11; Aib (2-aminoisobutyric acid) at 9; D-Ala (a) at C-terminus; C-terminal amide
notes: stapled peptidomimetic macrocycle
B2: SP612, Ac-LTF$r8EYWACitL$AAAAAa-NH2 (peptide)
peptide: LTFAEYWAXLAAAAAAA
modifications: not fully specified; N-terminal acetyl; $r8 at 4 crosslinked by all-carbon olefin staple to $ at 11; Cit (citrulline) at 9; D-Ala (a) at C-terminus; C-terminal amide
notes: as for B1
B3: SP686, 5-TAMRA-BaLTF$r8EYWAQCba$SAA-NH2 (peptide)
peptide: ALTFAEYWAQAASAA
modifications: not fully specified; N-terminal 5-TAMRA on beta-alanine (Ba); $r8 crosslinked by all-carbon olefin staple to $; Cba (cyclobutyl alanine); C-terminal amide
notes: TAMRA-labeled stapled peptidomimetic macrocycle
B4: SP595, Ac-LTF$r8EYWAQCba$S-NH2 (peptide)
peptide: LTFAEYWAQAAS
modifications: not fully specified; N-terminal acetyl; $r8 at 4 crosslinked by all-carbon olefin staple to $ at 11; Cba (cyclobutyl alanine) at 10; C-terminal amide
notes: as for B1
B5: SP433, Ac-LTF$r8EYWCou7QCba$SAA-NH2 (peptide)
peptide: LTFAEYWXQAASAA
modifications: not fully specified; N-terminal acetyl; $r8 at 4 crosslinked by all-carbon olefin staple to $ at 11; Cou7 at 8 (structure shown only as a drawing); Cba (cyclobutyl alanine) at 10; C-terminal amide
notes: as for B1
B6: SP602, Ac-LTF$r8GlaYWAQL$AAAAAa-NH2 (peptide)
peptide: LTFAEYWAQLAAAAAAA
modifications: not fully specified; N-terminal acetyl; $r8 at 4 crosslinked by all-carbon olefin staple to $ at 11; Gla at 5 (abbreviation not defined in the filing); D-Ala (a) at C-terminus; C-terminal amide
notes: as for B1
B7: SP613, Ac-LTF$r8EYWAHL$AAAAAa-NH2 (peptide)
peptide: LTFAEYWAHLAAAAAAA
modifications: not fully specified; N-terminal acetyl; $r8 at 4 crosslinked by all-carbon olefin staple to $ at 11; D-Ala (a) at C-terminus; C-terminal amide
notes: as for B1
B8: SP608, Ac-LTF$r8EYWALL$AAAAAa-NH2 (peptide)
peptide: LTFAEYWALLAAAAAAA
modifications: not fully specified; N-terminal acetyl; $r8 at 4 crosslinked by all-carbon olefin staple to $ at 11; D-Ala (a) at C-terminus; C-terminal amide
notes: as for B1
B9: SP600, Ac-LTF$r8QYWAQL$AAAAAa-NH2 (peptide)
peptide: LTFAQYWAQLAAAAAAA
modifications: not fully specified; N-terminal acetyl; $r8 (alpha-Me R8-octenyl-alanine) at 4 crosslinked by all-carbon olefin staple to $ (alpha-Me S5-pentenyl-alanine) at 11; D-Ala (a) at C-terminus; C-terminal amide
notes: as for B1
B10: SP603, Ac-LTF$r8F4gYWAQL$AAAAAa-NH2 (peptide)
peptide: LTFAFYWAQLAAAAAAA
modifications: not fully specified; N-terminal acetyl; $r8 at 4 crosslinked by all-carbon olefin staple to $ at 11; F4g at 5 (abbreviation not defined in the filing); D-Ala (a) at C-terminus; C-terminal amide
notes: as for B1
B11: SP610, Ac-LTF$r8EYWASL$AAAAAa-NH2 (peptide)
peptide: LTFAEYWASLAAAAAAA
modifications: not fully specified; N-terminal acetyl; $r8 at 4 crosslinked by all-carbon olefin staple to $ at 11; D-Ala (a) at C-terminus; C-terminal amide
notes: as for B1
B12: SP611, Ac-LTF$r8EYWANL$AAAAAa-NH2 (peptide)
peptide: LTFAEYWANLAAAAAAA
modifications: not fully specified; N-terminal acetyl; $r8 at 4 crosslinked by all-carbon olefin staple to $ at 11; D-Ala (a) at C-terminus; C-terminal amide
notes: as for B1
B13: SP615, Ac-LTF$r8EpYWAQL$AAAAAa-NH2 (peptide)
peptide: LTFAEYWAQLAAAAAAA
modifications: not fully specified; N-terminal acetyl; $r8 at 4 crosslinked by all-carbon olefin staple to $ at 11; pY at 6 (abbreviation not defined in the filing); D-Ala (a) at C-terminus; C-terminal amide

Experiments:
[1] = molecular target: T1, MDMX (In-house, 40 kD); experiment: competitive fluorescence polarization, displacement of FAM-labeled linear peptide from MDMX; grade decoded by the scale of Table 4
[2] = molecular target: MDM2 (In-house, 41 kD) (UniProt Q00987); experiment: competitive fluorescence polarization, displacement of FAM-labeled linear peptide from MDM2; grade decoded by the scale of Table 4
MDM2 (In-house, 41 kD) (UniProt Q00987), sequence (Q00987 1-125 limits assumed): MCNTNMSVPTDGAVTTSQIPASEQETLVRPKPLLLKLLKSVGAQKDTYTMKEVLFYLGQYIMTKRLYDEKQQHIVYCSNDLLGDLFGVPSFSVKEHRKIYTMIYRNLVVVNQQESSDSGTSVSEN

[3] = molecular target: T3, MDM2 (In-house, 41 kD) (UniProt Q00987 1-125, limits assumed); experiment: as above
T3 construct: Construct limits and any tag are unknown; also called HDM2
T3 sequence (Q00987 1-125 limits assumed): as above

[4] = molecular target: T2, MDMX (In-house, 40 kD); experiment: competitive fluorescence polarization, displacement of FAM-labeled linear peptide from MDMX; grade decoded by the scale of Table 4

Molecule	Ki [3]	further results
SP758, Ac-tawya$s8f4CF3ekllr$r5a-NH2 (peptide)	–	IC50 [1]: > 1000 nM; IC50 [2]: > 10 nM and < 100 nM
B1	≤ 10 nM	–
B2	≤ 10 nM	–
B3	≤ 10 nM	–
B4	> 1000 nM	–
B5	≤ 10 nM	–
B6	≤ 10 nM	Ki [4]: ≤ 10 nM
B7	≤ 10 nM	–
B8	≤ 10 nM	–
B9	≤ 10 nM	Ki [4]: ≤ 10 nM
B10	≤ 10 nM	Ki [4]: ≤ 10 nM
B11	≤ 10 nM	–
B12	≤ 10 nM	–
B13	–	Ki [1]: < 10 nM; Ki [2]: < 10 nM
